Experimental data reported in patent publication US20260167718A1 (Merck Sharp & Dohme, published 2026).

T1: rhesus ILT3-His tagged recombinant protein (rhesus monkey (Macaca mulatta))
T1 construct: also called ILT3_MM; not shown: His tag
T1 chain: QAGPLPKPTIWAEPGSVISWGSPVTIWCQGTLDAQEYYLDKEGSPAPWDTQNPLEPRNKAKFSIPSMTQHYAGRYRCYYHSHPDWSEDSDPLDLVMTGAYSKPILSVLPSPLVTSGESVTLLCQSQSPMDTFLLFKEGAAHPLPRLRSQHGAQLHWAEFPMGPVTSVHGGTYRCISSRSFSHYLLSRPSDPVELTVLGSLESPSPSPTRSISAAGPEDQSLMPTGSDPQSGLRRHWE


Assays:
[1] = biological target: T2, Human ILT3 (LILRB4) extracellular domain with C-terminal His Tag (human, UniProt Q8NHJ6 22-259); test: SPR (Biacore), human ILT3-His
T2 construct: the claims count residues 1-238 as the extracellular domain; also called human ILT3-His; ILT3_H
Description: (§1) The binding kinetics and affinities of anti-human ILT3 clones for human or rhesus ILT3-His tagged recombinant protein were measured by surface plasmon resonance using a Biacore™ T200 system (GE Healthcare, Piscataway, NJ). HBS-EP+ buffer (BR-1006-69) was used as the running buffer. Anti-human Fc antibody (Human Fc Capture Kit, BR100839, GE Healthcare) was immobilized via amine coupling chemistry in all four flow cells on a Series S CM5 sensor chip (BR100530 or 29149603, GE Healthcare) following manufacturer instructions. Flow cell 1 was used as reference for background subtraction and was not used for capture. […] Following each injection cycle, all four flow cells were regenerated using 30 second injection of 3M MgCl₂ solution at a flow rate of 10 μL/minute. Reference subtracted sensorgrams were fit to a 1:1 Langmuir Binding Model in the Biacore™ T200 Evaluation Software (Version 2.0) to determine the association (ka) and dissociation (kd) rate constants and the equilibrium dissociation constant KD (=kd/ka).

[2] = biological target: T1, rhesus ILT3-His tagged recombinant …; test: SPR (Biacore), rhesus ILT3-His
Description: as §1

| Binder | Kd [1] [nM] | Kd [2] [nM] | binding result [1] | binding result [2] |
| --- | --- | --- | --- | --- |
| Humanized anti-ILT3 mAb (52B8 VH1 M64V W101Y/VL5 S35N) IgG4 S228P/Kappa (antibody, V domains shown, also called mAb 56) VH: EVQLVESGGGLVQPGGSLRLSCAASGFTFSNYGMSWVRQAPGKGLEWVATISGGGDYTNYPDSVRGRFTISRDNAKNSLYLQMNSLRAEDTAVYYCGRRLYFRSLYYAMDYWGQGTLVTVSS VL: DIQLTQSPSSLSASVGDRVTITCRASEKVDSFGNNFMHWYQQKPGKAPKLLIYLTSNLDSGVPSRFSGSGSGTDFTLTISSLQPEDFATYYCQQNNEDPYTFGQGTKLEIKR | – | – | no binding (tested: ILT3-His injected up to 20 nM) | no binding (tested: ILT3-His injected up to 20 nM) |
| Humanized anti-ILT3 mAb (52B8 VH1/VL3) IgG4 S228P/Kappa (antibody, V domains shown, also called mAb 3) VH: EVQLVESGGGLVQPGGSLRLSCAASGFTFSNYGMSWVRQAPGKGLEWVATISGGGDYTNYPDSMRGRFTISRDNAKNSLYLQMNSLRAEDTAVYYCGRRLWFRSLYYAMDYWGQGTLVTVSS VL: EIVLTQSPATLSLSPGERATLSCRASEKVDSFGNSFMHWYQQKPGQAPRLLIYLTSNLDSGVPARFSGSGSRTDFTLTISSLEPEDFAVYYCQQNNEDPYTFGQGTKLEIKR | 1.1 | 26 | – | – |
| Humanized anti-ILT3 mAb (52B8 VH1 M64V/VL5 S35A) IgG4 S228P/Kappa (antibody, V domains shown, also called mAb 44) VH: EVQLVESGGGLVQPGGSLRLSCAASGFTFSNYGMSWVRQAPGKGLEWVATISGGGDYTNYPDSVRGRFTISRDNAKNSLYLQMNSLRAEDTAVYYCGRRLWFRSLYYAMDYWGQGTLVTVSS VL: DIQLTQSPSSLSASVGDRVTITCRASEKVDSFGNAFMHWYQQKPGKAPKLLIYLTSNLDSGVPSRFSGSGSGTDFTLTISSLQPEDFATYYCQQNNEDPYTFGQGTKLEIKR | 2.6 | 34 | – | – |
| Humanized anti-ILT3 mAb (52B8 VH1 M64V/VL5 N34D) IgG4 S228P/Kappa (antibody, V domains shown, also called mAb 47) VH: EVQLVESGGGLVQPGGSLRLSCAASGFTFSNYGMSWVRQAPGKGLEWVATISGGGDYTNYPDSVRGRFTISRDNAKNSLYLQMNSLRAEDTAVYYCGRRLWFRSLYYAMDYWGQGTLVTVSS VL: DIQLTQSPSSLSASVGDRVTITCRASEKVDSFGDSFMHWYQQKPGKAPKLLIYLTSNLDSGVPSRFSGSGSGTDFTLTISSLQPEDFATYYCQQNNEDPYTFGQGTKLEIKR | 3.8 | 115 | – | – |
| Humanized anti-ILT3 mAb (52B8 VH1 M64V/VL5 S35N) IgG4 S228P/Kappa (antibody, V domains shown, also called mAb 45) VH: EVQLVESGGGLVQPGGSLRLSCAASGFTFSNYGMSWVRQAPGKGLEWVATISGGGDYTNYPDSVRGRFTISRDNAKNSLYLQMNSLRAEDTAVYYCGRRLWFRSLYYAMDYWGQGTLVTVSS VL: DIQLTQSPSSLSASVGDRVTITCRASEKVDSFGNNFMHWYQQKPGKAPKLLIYLTSNLDSGVPSRFSGSGSGTDFTLTISSLQPEDFATYYCQQNNEDPYTFGQGTKLEIKR | 4.7 | – | – | no binding (tested: ILT3-His injected up to 20 nM) |
| Humanized anti-ILT3 mAb (52B8 VH1 M64V/VL4) IgG4 S228P/Kappa (antibody, V domains shown, also called mAb 12) VH: EVQLVESGGGLVQPGGSLRLSCAASGFTFSNYGMSWVRQAPGKGLEWVATISGGGDYTNYPDSVRGRFTISRDNAKNSLYLQMNSLRAEDTAVYYCGRRLWFRSLYYAMDYWGQGTLVTVSS VL: EIVLTQSPATLSLSPGERATLSCRASEKVDSFGNSFMHWYQQKPGQAPRLLIYLTSNLDSGIPARFSGSGSGTDFTLTISSLEPEDFAVYYCQQNNEDPYTFGQGTKLEIKR | 1.5 | 29 | – | – |

Further lines, with some results ahead:

| Kd [1] [nM] | Kd [2] [nM] | Binder | binding result [1] | binding result [2] |
| --- | --- | --- | --- | --- |
| 1.3 | 29 | Humanized anti-ILT3 mAb (52B8 VH1 M64L/VL4) IgG4 S228P/Kappa (antibody, V domains shown, also called mAb 20) VH: EVQLVESGGGLVQPGGSLRLSCAASGFTFSNYGMSWVRQAPGKGLEWVATISGGGDYTNYPDSLRGRFTISRDNAKNSLYLQMNSLRAEDTAVYYCGRRLWFRSLYYAMDYWGQGTLVTVSS VL: EIVLTQSPATLSLSPGERATLSCRASEKVDSFGNSFMHWYQQKPGQAPRLLIYLTSNLDSGIPARFSGSGSGTDFTLTISSLEPEDFAVYYCQQNNEDPYTFGQGTKLEIKR | – | – |
| 1.4 | 29 | Humanized anti-ILT3 mAb (52B8 VH2 M64V/VL4) IgG4 S228P/Kappa (antibody, V domains shown, also called mAb 16) VH: EVQLVESGGGLVQPGGSLRLSCAASGFTFSNYGMSWVRQAPGKGLEWVATISGGGDYTNYPDSVRGRFTISRDNAKNSLYLQMNSLKAEDTAVYYCGRRLWFRSLYYAMDYWGQGTLVTVSS VL: EIVLTQSPATLSLSPGERATLSCRASEKVDSFGNSFMHWYQQKPGQAPRLLIYLTSNLDSGIPARFSGSGSGTDFTLTISSLEPEDFAVYYCQQNNEDPYTFGQGTKLEIKR | – | – |
| 1.2 | 27 | Humanized anti-ILT3 mAb (52B8 VH2 M64L/VL4) IgG4 S228P/Kappa (antibody, V domains shown, also called mAb 24) VH: EVQLVESGGGLVQPGGSLRLSCAASGFTFSNYGMSWVRQAPGKGLEWVATISGGGDYTNYPDSLRGRFTISRDNAKNSLYLQMNSLKAEDTAVYYCGRRLWFRSLYYAMDYWGQGTLVTVSS VL: EIVLTQSPATLSLSPGERATLSCRASEKVDSFGNSFMHWYQQKPGQAPRLLIYLTSNLDSGIPARFSGSGSGTDFTLTISSLEPEDFAVYYCQQNNEDPYTFGQGTKLEIKR | – | – |
| 0.96 | 24 | Humanized anti-ILT3 mAb (52B8 VH2 M64L/VL3) IgG4 S228P/Kappa (antibody, V domains shown, also called mAb 23) VH: EVQLVESGGGLVQPGGSLRLSCAASGFTFSNYGMSWVRQAPGKGLEWVATISGGGDYTNYPDSLRGRFTISRDNAKNSLYLQMNSLKAEDTAVYYCGRRLWFRSLYYAMDYWGQGTLVTVSS VL: EIVLTQSPATLSLSPGERATLSCRASEKVDSFGNSFMHWYQQKPGQAPRLLIYLTSNLDSGVPARFSGSGSRTDFTLTISSLEPEDFAVYYCQQNNEDPYTFGQGTKLEIKR | – | – |
| 0.99 | 26 | Humanized anti-ILT3 mAb (52B8 VH1 M64L/VL3) IgG4 S228P/Kappa (antibody, V domains shown, also called mAb 19) VH: EVQLVESGGGLVQPGGSLRLSCAASGFTFSNYGMSWVRQAPGKGLEWVATISGGGDYTNYPDSLRGRFTISRDNAKNSLYLQMNSLRAEDTAVYYCGRRLWFRSLYYAMDYWGQGTLVTVSS VL: EIVLTQSPATLSLSPGERATLSCRASEKVDSFGNSFMHWYQQKPGQAPRLLIYLTSNLDSGVPARFSGSGSRTDFTLTISSLEPEDFAVYYCQQNNEDPYTFGQGTKLEIKR | – | – |
| 1 | 26 | Humanized anti-ILT3 mAb (52B8 VH2 M64V/VL3) IgG4 S228P/Kappa (antibody, V domains shown, also called mAb 15) VH: EVQLVESGGGLVQPGGSLRLSCAASGFTFSNYGMSWVRQAPGKGLEWVATISGGGDYTNYPDSVRGRFTISRDNAKNSLYLQMNSLKAEDTAVYYCGRRLWFRSLYYAMDYWGQGTLVTVSS VL: EIVLTQSPATLSLSPGERATLSCRASEKVDSFGNSFMHWYQQKPGQAPRLLIYLTSNLDSGVPARFSGSGSRTDFTLTISSLEPEDFAVYYCQQNNEDPYTFGQGTKLEIKR | – | – |
| 1.1 | 27 | Humanized anti-ILT3 mAb (52B8 VH1 M64V/VL3) IgG4 S228P/Kappa (antibody, V domains shown, also called mAb 11) VH: EVQLVESGGGLVQPGGSLRLSCAASGFTFSNYGMSWVRQAPGKGLEWVATISGGGDYTNYPDSVRGRFTISRDNAKNSLYLQMNSLRAEDTAVYYCGRRLWFRSLYYAMDYWGQGTLVTVSS VL: EIVLTQSPATLSLSPGERATLSCRASEKVDSFGNSFMHWYQQKPGQAPRLLIYLTSNLDSGVPARFSGSGSRTDFTLTISSLEPEDFAVYYCQQNNEDPYTFGQGTKLEIKR | – | – |
| 1.4 | 29 | Humanized anti-ILT3 mAb (52B8 VH1/VL4) IgG4 S228P/Kappa (antibody, V domains shown, also called mAb 4) VH: EVQLVESGGGLVQPGGSLRLSCAASGFTFSNYGMSWVRQAPGKGLEWVATISGGGDYTNYPDSMRGRFTISRDNAKNSLYLQMNSLRAEDTAVYYCGRRLWFRSLYYAMDYWGQGTLVTVSS VL: EIVLTQSPATLSLSPGERATLSCRASEKVDSFGNSFMHWYQQKPGQAPRLLIYLTSNLDSGIPARFSGSGSGTDFTLTISSLEPEDFAVYYCQQNNEDPYTFGQGTKLEIKR | – | – |
